Assay: yeast display, Sf9 membrane polyspecificity reagent, FACS + sequencing; frameworks hold sequencing errors
Procedure, shortened: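 After 36–48 hours of galactose induction, yeast (Saccharomyces cerevisiae BJ5465) displaying a synthetic nanobody library were stained at 4 °C for 1 hour with 10% biotinylated, detergent-solubilized Sf9 membrane reagent. Streptavidin microbeads enriched the stained cells before FACS sorting into low and high (top ~1%) gates on anti-HA and streptavidin fluorescence. Each clone's polyreactivity label reflects its gate of origin.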

Row | Sequence | polyreactivity (PSR sort gate)
1 | QVQLVESGGGLVQAGGSLRLSCAASGRTFSVYDMGWYRQAPGKERELVARIRSGGSTYYADSVKGRFTISRDNAKNTVYLQMNSLKPEDTAVYYCAADGFASRWYAYYYWGQGTQVTVSS | high polyreactivity
2 | QVQLVESGRGLVQAGGSLRLSCAASGSIFTPNVMGWYIQAPGKERELVAAISQSGGSTFYADSVKGRFTISRDNAKNTVYLQLNSLKPEDTAVYYCATEYDGPVYDLDYDYWGQGTLVTVSS | low polyreactivity
3 | QVQLVESGGGLVQAGGSLRLSCAASGLIFRWYAMGWYRQAPGKEREMVAAISRRGGTTNYADSVKGRFTISRDNAKNTVYLQMTSLKPEDTAVYYCAADYQSVGGAEYDYWGQGTQVTVSS | high polyreactivity
4 | QVQLVESGGGLVQAGGRLRLSCAASGSTFRSNVMGRYRQATGKERELVAAITSGSITNYADSVKGRFTISRDNAKNTVYLQMNSLKPEDTAVYYCAVETYVYGRMGYLGQGTQVTVSS | high polyreactivity
5 | QVQLEESGGGLVQAGASLRLSCAASGRTIAHYAMGWYRQAPGKERELVAAITRGGGTYYADSVKGRFTISRDNAKHSVYLQMNSLKPEDTAVYYCAADHSRYGYPAKTMDYWGQCTQVTVSS | low polyreactivity
6 | QVQLVESGGGLVQAGGSLRLICAASGRTLGGNDMGWYRQAPGKERELVAAITNSASTYADSVKGRFTISRDNAKNTVYLQMNSLKPEDTAVYYCNAPDPSDQHGDYWGQGTQVTVSS | low polyreactivity
7 | QFQLLESGGGLVQAGGSLRLSCAASGRTFSYNAMGWYRKAPGIERELVAAITGGTASTYYADSVKGRFTISRDNAKNPVYFQMNSLKPEETAVYYCNRASVFHYPWYYYWGQGTQVTVSS | high polyreactivity
8 | QVHLVESGGGLVQAGGSLRLSCAASGFTFNWYAMGWYRHAPGKERELVAAINSSGGNTYYADSVKGRFTISRDNAKNTVYLQMNSLKPEDTAVYYCAALLWGYVAFDYWGQGTQVTVSS | high polyreactivity
9 | QVQLVESGGGLVQAGGSLRLSCAASGITFRSYVMGWYRQAPGKEMEFVAVITKSGGSTYYADSVKGRFTISRDNAMNTVYLQMNSLKPEDTAVYYCGAEYARSSRYKISSEMYYWGQGTQVTVSS | high polyreactivity
10 | QVQLVESGGGLVQAGGSLRLSCAASGRNFYGYTMGWYRQAPGKERELVAAITSGGSTYYADSVKGRFTISRDNAKNTVYLQMNSLKPEDTAVYYCNAKYNGYYRRFSEYDYWGQGTQVTVSS | high polyreactivity
11 | QVQLVESGGGLVQAGGSLRLSCAASGFIFSYNAMGWYRQAPGKERELVATITRRGGGTTYADSVKGRFTISRDNAKNTVYLQMNSLKPEDTAGYYCNRDDNRKHSFGSVGYDYWGQGTQVTVSS | low polyreactivity
12 | QVQLVESGGGLVQAGGSLRLSCAASGFIFNRNAMGWYRQAPGKERELVAGINSGGTTKYADSVKGRFTISRDNAKNTVYLQMNSLKPEDTAVYYCNRDWWWDHGRWYRTSRYDYWGQGTQVTVSS | low polyreactivity
13 | QVQLVESGGGIVQAGGSLRLSCAASGFICGHYTMGWYRQAPGKERELVAAITTGGRTYYADSVKGRFTISRDNGKNTVYLQMISLKPEDTAVYYCAARGYIWGQGTPVTVSS | high polyreactivity
14 | QVQLVESGGGLVQAGGSLSLSCAASGFTFYSYTMGWYRQAPGKDREMVAAISGRSVRTYYADSVKGRFTISRDNAKNTVYLQMNSLKPEDTAVYYCARAYYWRTSWYNYWGQGTQVTVSS | high polyreactivity
15 | QVQLVESGGGLVQAGGSLRLSCAASGSIYGLYAMGWSREAPGKEREVVATITESGGSTYYADSVKGRFTISRDNAKNTVYLQMKSLKPEDTAVYYCHSDEVSAQYDDWGQGTQVTVSS | low polyreactivity
16 | QVQLQECGGGLVQAGGSLRLSCAASVNIFDADIMGSYRQAPGKERELVASVTDGGSTNYADSVKGRFTISRDNAKNTVYLQMNSLKPEDTAVYYCAGIVYPDILTFFDYDYDYFYWGQGTQVTVGS | low polyreactivity

Row | Sequence | polyreactivity (PSR sort gate)
17 | QVQLVESGGGLVQAGVSLRLSCAASGFIFSFNAMGWYRQAPGKERELVAAISRSGGSTRYADSVKGRFTISRDNAKNTVYLQMNCLKPEDTAVYYCNARSPYYSYLLHAYRLFDYWGQGTQVTVSS | high polyreactivity
18 | QDQLVESGGGLVQAGGSLRLICAASGSILSGYAMGWYRQAPGKERELVAAITSGGDTNYADSVKGRFTISRDNAKNTVYLQMNSLKPEDTAVYYCNRRGDFRIAYYDPMDYWGQGTQVTVSS | low polyreactivity
19 | QVQLVESGGGLVQAGGSLRLSCAASGGTFQRYVMGWYIQAPGKERELVAAISRSGSTYADSVKGRFTISRDNAKNTVYLQMNSLKPEDTAFYYCNVVRYYRYYLHGYDYWGQGTQVTVSS | high polyreactivity
20 | QVQLVESGGGLVQAGGSLRLSCAASGRTFRYYTMGWYRQAPGKERELVAAINDSGDITYYADSVKGRFTISRDNAKNTVSLQMNSLKPEDTAVYYCAASAAYYGFYKSVTYDYWGQGTQVTVSS | low polyreactivity
21 | QVQLVESGGGLVQAGGSLRLSCAASGRTFNRYGMGWYRQAPGKERELVASITSGGSTNYADSVKGRFTISRDNAKNTVYLQMNSLKPEDTAVYYCAKRSIGRYPRTYDYWGQGTQVTVSS | low polyreactivity
22 | QVQLVESGGGLVQAGGSLRLSCAASGFIFGFYAMGWYRQAPGKERELVAAISGGGGRTNYADSVKGRFTISRDNAKNTVYLQMNSLKPEDTAVYYCARSPSYYSYTFGRQAYGNDYWGQGTQVTVSS | high polyreactivity
23 | QGQLVESGGALVQAGGSLRLSCAASGSTFVRNAMGWYRPAPRKERELVAAISNVGSTYYADSVKGRFTISRDNAKNTVYFQKNSLKPEDTAVYYCTKQLWYHKFNYWGQGTQVTVSS | low polyreactivity
24 | QVQLVESGGGLVQAGGSLRLSCAASGRIFRYYAMGWYRPAPGKERELVAAITRSGGITYYADSVKGRFTISRDNAKNTVYLQLNSLKPEDTAVYYCAVRGAGWPSVRAFGYDYWGQGTQVTVSS | high polyreactivity
25 | QVQLVESGGRLVQSGGSLRLICAASGQIFQWYAMGWYRQAPGKETELVAAISSGDSTYYADSVTGRFTISRDNAKNTVYLDMNSLKPEDTAVDYCNARAIGWRIYDYWGQGTEVTVSS | high polyreactivity
26 | QVQLVESGGGLVHAGGSLRLSCAASGSIFYNYAKGWYRQAPGKERELVAAIDSGGSTYYADSVKGRFTISRDNAKNTVYLQMNSLKPEDSAVYSCAADTYWFVYYGYDYWGQGTQVTVSS | low polyreactivity
27 | QVQLVESGGGLVQAGGSLRLSCAASGRTFGIYAMGWYRQAPGTERQMVADITSGGDTYYADSVKGRFTISRDNAKNTVYLQMNSLKPEDTAVYYCAADIYPDWIYLLYGYWGQGTQVNVSS | low polyreactivity
28 | QVQLVESGGGLVQAGGSLRLSCAASGSTFRYNAMGWYRQAPGKVRELVAAIDKRGDSTYADSVKGRFTISRDNAKNTVYLQMNSLKPEDTAVYYCAADSDSKYNYGFLWDTYEYWGQGTQVTVSS | low polyreactivity
29 | QVQLVESGGGLVQAGGSLRLSCAASGSIFPWYVMGWYRQAPRKERELVASITYRGASTYYADSVKGRFTISRDNAKNTVYLQMNSLKPEDTAVYYCADFRSYYSERHDYGYWGQGTQVTVSS | low polyreactivity
30 | QVQLVESGGRLVQAGGSLRLSCAASGSTFGPYTMGWYRQAPGKERELVATISSGGSTYYADSVKGRFTISRDNAKNTVYLQMNSLKPEDTAVYYCAARYWSIYDYWGQGTQVTVSS | low polyreactivity
31 | QVQLVESGGGLVQAGGSLRLSGAASGRTLYCYAMGWSRQAPGKEREFVAAMSRSGGSTYYADSVKGRFTISRDNAKNTVYLQMNRLKPEETAVYYCADDRSFLQIYKAGPQYRSNYWGQGTQVTVSS | high polyreactivity

Reference: the nanobody polyreactivity screen of Harvey et al. (2022)
